Measured values from the nanobody polyreactivity screen of Harvey et al. (2022).

Experiment: yeast display, Sf9 membrane polyspecificity reagent, FACS + sequencing; frameworks hold sequencing errors
In short: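 Genes from sorted yeast were amplified by colony PCR, read by MiSeq 2 × 250 sequencing and filtered on CDR length. These cells carried a synthetic nanobody library in Saccharomyces cerevisiae BJ5465 and were sorted by FACS into low and high (top ~1%) gates on anti-HA and streptavidin fluorescence. Polyreactivity is labelled according to the gate of origin.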

Row | Sequence | polyreactivity (PSR sort gate)
1 | QVQLVESGGGLVQAGGSLRLSCAASGRTFRVYAMGWYRQAPGKERELVASITNDGSTYADSVKGRFTISRDNAKNTVYLQMNSLKPEDTAVYFCAARFPQWRYSRRTGERFDYWGQGTQVTVSS | low polyreactivity
2 | QVQLVESGGGLVQAGGSLRLSCAASGRTFRVYAMGWYRQAPWKERELVAAISGRGGRTYYADSVKGRFTISRDNAKNTVYLQMNSLKPEDTAVYYCTADVGVYHDDYWGQGTQVTVSS | high polyreactivity
3 | QVQLVESGGGLVQAGGSLRLSCAASGRTFRVYTMGWYRQAPGKERELVAAISSRGGSTYYADSVKGRFTISRDNAKNTVYLQMYSLKPEDTAVYYCAASKFRSGGYDYWGQGTQVTVSS | high polyreactivity
4 | QVQLVESGGGLVQAGGSLRLSCAASGRTFRWYAMGRYRQAPGKERELVAVISRGGGSTTYADSVKGRFTISRDNAKNTVYLQMNSLKPEDTAVYYCAAQWSGSVGSRPMYYWGQGSQVTVSS | high polyreactivity
5 | QVQLVESGGGLVQAGGSLRLSCAASGRTFRWYTMGWYRQAPGKEREFVAAITWSGSSTNYADSVKGRFTISRDNEKNTVYLQMNSLKPEDTAFYYCAAENRRRRDDYWGQGTQVTVSS | high polyreactivity
6 | QVQLVESGGGLVQAGGSLRLSCAASGRTFRYNALGWYRPAPGKERELVASITSGGSTNYADSVKGRFTMSRDNAKNTVYLQMNSLKPEDTAVYYCASDERRPYWQHSIGSGRPFDYWGQGTQVTVSS | low polyreactivity
7 | QVQLVESGGGLVQAGGSLRLSCAASGRTFRYNAMGWYRQAPGKERELVAAITQSGGSTYYADSVWGRFTISRDNAKNTVYLQMNSLKPDDTAVYYCAKVRERINYDYWGQGTQVTVSS | low polyreactivity
8 | QVQLVESGGGLVQAGGSLRLSCAASGRTFRYNAMGWYRQAPGKERELVAAITWGGGSTYYADSVKGRFTISRDNAKYTVYLQMNSLKPEDTAVYYCNADYIGNYQSIYQYDYWGQGTQVTVSS | low polyreactivity
9 | QVQLVESGGGLVQAGGSLRLSCAASGRTFRYNAMGWYRQAPGKERELVASISWRGGSTYYADSVKGRFTISRDNAKNTVYLPMNSLKPEDTAVYYCAADAAHSEYDDWGQGTQVTVSS | high polyreactivity
10 | QVQLVESGGGLVQAGGSLRLSCAASGRTFRYNTMGWYRQAPGKERELVAALTYRGGRTYYADSVKGRFTISRDHAKNTVYLQMNSLKPEDTAVYYCARDYYGSVRFDHWGQGTQVTVSS | high polyreactivity
11 | QVQLVESGGGLVQAGGSLRLSCAASGRTFRYNTMGWYRQAPGKERELVARITRSGGSTYYADSVKGRFTISRDNAKNTVYLQMNSLKPEDTAVYYCAAVPILVYRWFQSYTGDYDYWGQGTQVTVSS | low polyreactivity
12 | QVQLVESGGGLVQAGGSLRLSCAASGRTFRYYAIGWYRQAPGKERELVAAISSSGASTYDAESVKGRFTISRDNAKYTVYLQMNSLKPEDTAVYYCRSGILFYSRYDYWGQGTQVTVSS | low polyreactivity
13 | QVQLVESGGGLVQAGGSLRLSCAASGRTFRYYAMGWNRQAPGKESELVASISRSGGSTYYADSVKGRFTISRDNAKITVYLQMNSLKPEDTAVYYCAVGKGSHYLGFDYWGQGTQVTVSS | high polyreactivity
14 | QVQLVESGGGLVQAGGSLRLSCAASGRTFRYYAMGWYRQAPGKERELVAAIDTSSGSTYYADSVKGRFTISRDNAKNTVYLQMKSLKPEDTAVYYCNATWWIPLFYDYWGQGTQVTVSS | low polyreactivity
15 | QVQLVESGGGLVQAGGSLRLSCAASGRTFRYYAMGWYRQAPGKERELVAAITSGGSTYYADSVKGRFTISRDNAKNTVYLLMNSLKPEDTAAYYCAAEYVYPYWNGFDYWGQGTQVTVSS | low polyreactivity
16 | QVQLVESGGGLVQAGGSLRLSCAASGRTFRYYAMGWYRQAPGKERELVAAITSGGSTYYADSVKGRFTISRDNAKNTVYLQMNSLKPEDTAVYYCNKDFTRTWTRHGDDYWGQGTQVTVSS | high polyreactivity
17 | QVQLVESGGGLVQAGGSLRLSCAASGRTFRYYAMGWYRQAPGKERELVAAITVRTGSTSYADSVKGRFTISRDNAKNTVYLQMNSLKPEDTAVYYCAATSRYFQPPGYGGGRIGYGYWGQGTQVTVSS | high polyreactivity
18 | QVQLVESGGGLVQAGGSLRLSCAASGRTFRYYAMGWYRQAPGKERELVASISRRGGSTHYADSVKVRFTISRDNAKNTVYLQMNSLKPEDTAVYYCAAYGYYTKVTKYDYWGQGTQVTVSS | high polyreactivity
19 | QVQLVESGGGLVQAGGSLRLSCAASGRTFRYYTMGWYRQAPGKERELVAAISWSSGSTYYADSVKGRFTISRDNAKNTVYLQMNSLKPEDTAVYYCAASRVRREYVGQDVGFVGYDSWGQGTQVTVSS | high polyreactivity
20 | QVQLVESGGGLVQAGGSLRLSCAASGRTFRYYTMGWYRQAPGTERELVAAITGGSRTNYADSVKGRFTISRDNAKNTVYLQMNSLKPEDTAVYYCAARRSYLLRYDYWGQGTQVTVSS | high polyreactivity
21 | QVQLVESGGGLVQAGGSLRLSCAASGRTFSANAMGWYRLAPGKERELVATISSGGRTNYADSVKGRFTISRDNAKNTVYLQMNSLKPEDTAVYYCAKRGPYNRWYGRYDYWGQGTQVTVSS | low polyreactivity
22 | QVQLVESGGGLVQAGGSLRLSCAASGRTFSANTMGWYRQAPGKERELVAAISKSGGSTYYADSVKGRFTISRDNAKNTVYLQMNSLKPEDTAVYYCAAARNVYRGRVYWGRYDYWGQGTQVTVSS | high polyreactivity

Row | Sequence | polyreactivity (PSR sort gate)
23 | QVQLVESGGGLVQAGGSLRLSCAASGRTFSAYAMGWYRQAPGKERELVATISRSGGRTYYADSVKGRFTISRDNAKNTVYLQMNSLKPEDTAVYYCNARILRDNQGTYDYWGQGTQVTVSS | high polyreactivity
24 | QVQLVESGGGLVQAGGSLRLSCAASGRTFSDYAMGWYRQAPGKERELVAAITSSGGSTYYADSVKGRFTISRDNAKNTVYLQMNSLKPEDTAVYYCAKVWYGDRNIDRYDYWGQGTQVTVSS | high polyreactivity
25 | QVQLVESGGGLVQAGGSLRLSCAASGRTFSGNAMGWYIQAPRKDRELVAAISSGGSTNYADSVKGRFTISRDNAKNTVYLQMNSLEPEDTAVYYCAADEWRFPSYAYYYWGQGTQVTVSS | low polyreactivity
26 | QVQLVESGGGLVQAGGSLRLSCAASGRTFSGNAMGWYRQAPGKEREMVAAITGRGGTTYYADSVKGRFTISRDNAKKTVFLQMNSLKPEDTAVYYCAADTKLSYQWFDYWGQGTQVTVSS | high polyreactivity
27 | QVQLVESGGGLVQAGGSLRLSCAASGRTFSGYAMGWYRQAPGKEREFVAAISRSGGSTYYADSVKGRFTISRDNAKNTVYLQMNSLKPEDIAVYYCAAQIWYSKRLAYKAYDYWGQGTQVTVSS | high polyreactivity
28 | QVQLVESGGGLVQAGGSLRLSCAASGRTFSGYAMGWYRQAPGKERELVAAITSSGSSTYYADSVKGRFTISRDNAKNTVYLQMNSQKPEDTSVYYCAATPQAHSERYYYQRKYDYWGQGTQVTVSS | low polyreactivity
29 | QVQLVESGGGLVQAGGSLRLSCAASGRTFSHYAMGWYRQAPGKERELVAAITWSGGRTYYADSVKGRFTISRDNAKNTVYLQMNSLKPEDTAVYYCAAGKYWPGNYWGQGTQVTVSS | high polyreactivity
30 | QVQLVESGGGLVQAGGSLRLSCAASGRTFSIYAKGWYRQAPGKERELVAAISNGGRTKYADSVKGRFTISRDNAKNTVYLQMNSLKPEDTAVYYCAASSYTHKRYPSPYDYWGQGTQVTVSS | high polyreactivity
31 | QVQLVESGGGLVQAGGSLRLSCAASGRTFSKNAMGWYRQAPGKERELVAAISWSGGRTYYADSVKGRFTISRDNAKNTVYLQMNSLKPEDTAVYYCNAYYPGNGPRSTSTRYEYWGQGTQVTVSS | high polyreactivity
32 | QVQLVESGGGLVQAGGSLRLSCAASGRTFSKYAMGWYRQAPGKERELVAAISKRGGSTSYADSVKGRFTISRDNAKNTVYLQMNSLKPEDTAVYYCAADGNRNYLYWPYGYWGQGTQVTVSS | high polyreactivity
33 | QVQLVESGGGLVQAGGSLRLSCAASGRTFSKYTMGWYRQATGKERELVAAIDRSGGSTYYADSVKGRFTISRDNAKNTVYLQMNSLKPEDTAVYYCAAVYYLVPGNYWGHGTQVTVSS | high polyreactivity
34 | QVQLVESGGGLVQAGGSLRLSCAASGRTFSNYAMGWYRQAPGKEREFVAGIRYNGGSTYYADSVKGRFTISRDNAKNTVYLQMNSLKPEDTAVYYCAAERWFYRSKFDYWGQGTQVTVSS | high polyreactivity
35 | QVQLVESGGGLVQAGGSLRLSCAASGRTFSNYMGWYRQAPGKERELVAAISWRGGTTYYADSVKGRFTISRDNAKNTVYLQMNSLKPEDTAVYYCNADVVRYRHWHRGDYWGQGTQVTVSS | low polyreactivity
36 | QVQLVESGGGLVQAGGSLRLSCAASGRTFSPNAMGWYRQAPGKERELVAAITRSDGRTYYADSVKGRFTISRDNAKNTVYLQMNSLKPEDTAVYYCAVDGYYPPAWYEYDYWGQGTQVTVSS | high polyreactivity
37 | QVQLVESGGGLVQAGGSLRLSCAASGRTFSPYAMGWYRQAPGKERELVAAITSRGASTYYADSVKGRFTISRDNAKNTVYLQMNSLKPEDTAVYYCNSGRTYRRLGDYWGQGTQVTVSS | high polyreactivity
38 | QVQLVESGGGLVQAGGSLRLSCAASGRTFSQYAMGWYRQAPGKERELVAAITSAGSTYYADSVKGRFTISRDNAKNTVYLQMKSLKPEDTAVYYCNARGPSRYTGYSSYYWGQGTQVTVSS | high polyreactivity
39 | QVQLVESGGGLVQAGGSLRLSCAASGRTFSQYAMGWYRQPPGKERELVASISWSGGSTYYADSVKGRFTISRDNAKNTVYLQMNSLKPEDTAVYYCAAVGKGSARSSYPVLYDYWGQGTQVTVSS | low polyreactivity
40 | QVQLVESGGGLVQAGGSLRLSCAASGRTFSRNAMGWYRQAPGKERELVAAISWSGARTYYADSVKGRFTISRDNAKNTVYLQMNSLKPEDTAVYYCAARVPSWKYDYWGQGTQVTVSS | high polyreactivity
41 | QVQLVESGGGLVQAGGSLRLSCAASGRTFSRYAMGWYRQAPGKERELVAAITWSGGDTYYADSVKGRFTISRDNAKNTVYLQMNSLKPEDTAVYYCAAEWGTVGYIRYYAIWSEYDYWGQGTQVTVSS | low polyreactivity
42 | QVQLVESGGGLVQAGGSLRLSCAASGRTFSRYAMGWYRQAPGKERELVATISSSGGTTYYADSVKGRFTISRDNAKNTVYLQLNSLKPEDTAVSYCNSEYKIRTHASGFDYWGQGTQVTVSS | low polyreactivity
43 | QVQLVESGGGLVQAGGSLRLSCAASGRTFSRYTMGWYRQAPGKEREFVAAISVNGGTTHYADSVKGRFTISRDNAKNTVYLQMNSLKPEDTAVYYCAARNYLARRYGYWGQGTQVTVSS | high polyreactivity
